This is an account of results in patent US20170073382 (Nomadogen Biotechnologies Inc., published 2017).

This series concerns the target T1, synthetic TAL effector (RVG-LAMP-2B-NLS-TALE) (Artificial Sequence, UniProt P14727 SEQ:1-766).
T1 chain: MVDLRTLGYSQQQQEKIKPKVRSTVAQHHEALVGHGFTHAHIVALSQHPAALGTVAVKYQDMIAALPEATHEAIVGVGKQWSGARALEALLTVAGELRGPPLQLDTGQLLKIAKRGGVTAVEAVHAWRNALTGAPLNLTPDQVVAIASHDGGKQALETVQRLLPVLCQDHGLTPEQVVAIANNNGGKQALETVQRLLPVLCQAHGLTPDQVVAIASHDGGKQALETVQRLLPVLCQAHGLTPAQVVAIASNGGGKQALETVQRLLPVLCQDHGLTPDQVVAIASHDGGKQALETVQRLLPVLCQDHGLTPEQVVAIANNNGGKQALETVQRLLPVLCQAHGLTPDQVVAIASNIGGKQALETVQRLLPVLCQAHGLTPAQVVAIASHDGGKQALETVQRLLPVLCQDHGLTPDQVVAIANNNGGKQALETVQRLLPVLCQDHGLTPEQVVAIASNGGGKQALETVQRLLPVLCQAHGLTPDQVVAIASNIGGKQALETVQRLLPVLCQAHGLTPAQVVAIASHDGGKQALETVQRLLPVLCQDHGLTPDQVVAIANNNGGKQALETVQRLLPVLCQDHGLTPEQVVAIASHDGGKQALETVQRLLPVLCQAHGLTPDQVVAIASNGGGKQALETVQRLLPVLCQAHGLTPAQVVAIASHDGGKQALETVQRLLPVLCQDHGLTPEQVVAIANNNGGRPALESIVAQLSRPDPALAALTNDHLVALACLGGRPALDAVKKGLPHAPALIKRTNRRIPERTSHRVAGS
The series can be described thus: cell_activity. The note with it: tags: fusion to C-terminus of RVG-LAMP-2B-NLS, expressed from pcDNA3.0 in HEK-293.

B1: gfaABC1D-NeuroD1 plasmid with TAL effector binding site (dsDNA)
DNA 1: TCGCTCGACGTACGCTCG
DNA 2: CGAGCGTACGTCGAGCGA
In turn, B1 registered a binding signal of 3 fold.
